Measurements taken from paper PMC3695727.

Target: Orai expressed in cell membranes (Drosophila melanogaster) (UniProt Q9U6B8)
Experiment: cross-linking

**Q.** With “Orai expressed in cell membranes (from UniProt Q9U6B8 1-351) (natural protein)” as the substance, how does the stoichiometry N read?
**A.** Its stoichiometry N is 6.
